Measurements as given in US20110243992.

Tested on: iron co-factored superoxide dismutase (SodA) of M. tuberculosis/BCG, wild type, as produced by BCG

## mutant SodA ΔE54 (also contains H28R substitution)
  total SOD activity, 3D-BCG (ΔE54 SodA mutant put into DD-BCG) versus DD-BCG: FIG. 16; 16-fold reduction
  total SOD activity, ΔE54 SodA mutant in BCG or SIG-BCG: FIGS. 4, 14; 2- to 4-fold reduction
